Source: patent US6395275 (Scripps Research, dated 2002)
Where two headings read alike, the source gives them in different places.

Columns and labels:
[1] = target: T1, recombinant gp120 of HIV-1 strain IIIb (HIV-1 strain IIIb, UniProt P04578 33-511); assay: SPR BIAcore, gp120 on chip;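 as to Ka: fab fragments flowed at 0.5 to 10 ug/ml over immobilized gp120, resonance units tracked during association and dissociation, equilibrium constants derived from the rate constants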
T1 construct: domain: gp120; also called IIIb-derived gp120; gp 120 (IIIB strain)
From the text: In the assay, the gp120 glycoprotein, isolated from both MN (AgMed, Cambridge, Mass.) and IIIb (American Bio-Technologies) strains of HIV-1 were coated onto gold chips. […] As the mass of the gold chips increases due to the binding of the Fabs to the ligand, the refractive index of the chips increases indicating a coordinate increase in the increase of the mass. Measurements of the "on" rate are made in addition to the "off" rates, the latter of which occurs as the Fabs begin to dissociate from the ligand and the mass coordinately decreases, thereby allowing a measurement of the change of the refractive index. Briefly, the sensor chip was activated for immobilization with N-hydroxysuccinimide an N-ethyl-N'-(3-diethyl aminopropyl) carbodiimide. The proteins, MN-derived or IIIb-derived gp120, were coupled to the surface by injection of 50 ul of a 50 ug/ml sample. Excess activated esters were quenched with 15 ul ethanolamine, 1 M pH 8.5. Typically, 4000 resonance units were immobilized. Binding of Fab fragments to immobilized gp120 was studied by injection of Fab in a range of concentrations (0.5 to 10 ug/ml) at a flow rate of 5 ul/minute. The association was monitored as the increase in resonance units per unit time. Dissociation measurements were acquired following the end of the association phase but with a flow rate of 50 ul/minute. The binding surface was regenerated with HCl, 1M NaCl, pH 3 and remained active for 20–40 measurements. […] Equilibrium association and dissociation constants were deduced from the rate constants.

[2] = target: T1, recombinant gp120 of HIV-1 strain IIIb; assay: SPR BIAcore, gp120 on chip (summary table)
[3] = target: T1, recombinant gp120 of HIV-1 strain IIIb; assay: SPR BIAcore, gp120 on chip; remark: listed apart in the source;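 as to Ka: fab fragments flowed at 0.5 to 10 ug/ml over immobilized gp120, resonance units tracked during association and dissociation, equilibrium constants derived from the rate constants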
[4] = target: T1, recombinant gp120 of HIV-1 strain IIIb; assay: SPR BIAcore, gp120 on chip; remark: listed apart in the source;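 as to Ka: fab fragments flowed at 0.5 to 10 ug/ml over immobilized gp120, resonance units tracked during association and dissociation, equilibrium constants derived from the rate constants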
From the text: As the mass of the gold chips increases due to the binding of the Fabs to the ligand, the refractive index of the chips increases indicating a coordinate increase in the increase of the mass. Measurements of the "on" rate are made in addition to the "off" rates, the latter of which occurs as the Fabs begin to dissociate from the ligand and the mass coordinately decreases, thereby allowing a measurement of the change of the refractive index. Briefly, the sensor chip was activated for immobilization with N-hydroxysuccinimide an N-ethyl-N'-(3-diethyl aminopropyl) carbodiimide. The proteins, MN-derived or IIIb-derived gp120, were coupled to the surface by injection of 50 ul of a 50 ug/ml sample. Excess activated esters were quenched with 15 ul ethanolamine, 1 M pH 8.5. Typically, 4000 resonance units were immobilized. Binding of Fab fragments to immobilized gp120 was studied by injection of Fab in a range of concentrations (0.5 to 10 ug/ml) at a flow rate of 5 ul/minute. The association was monitored as the increase in resonance units per unit time. Dissociation measurements were acquired following the end of the association phase but with a flow rate of 50 ul/minute. The binding surface was regenerated with HCl, 1M NaCl, pH 3 and remained active for 20–40 measurements. […] Equilibrium association and dissociation constants were deduced from the rate constants.
The soluble composite Fabs were then analyzed for binding affinity to gp120 strain IIIB.

B1: Fab QA1 (Fab, V domains shown)
VH: LEQSGAEVKKPGASVKVSCQASGYRFSNFTVHWVRQAPGQRFEWMGWINPYNGNKEFSAKFQDRVTFTADTSANTAYMELRSLRSADTAVYYCARVGEWGWDDSPQDNYYMDVWGKGTTVIVSS
VL: ELTQSPGTLSLSPGERATFSCRSSHQLDGSRVAWYQHKPGQAPRLVIHGVSNRASGISDRFSGSGSGTDFTLTITRVEPEDFALYYCQVYGWSQYTFGQGTKLERKR
Fold Increase of Mutant Kd Compared to MT4 Kd [1]: 12.2 fold | Kd [1]: 0.51 nM | Kd [2]: 0.51 nM

B2: composite Fab 4H/L42-1 (Fab, V domains shown)
VH: LEQSGAEVKKPGASVKVSCQASGYRFSNFVIHWVRQAPGQRFEWMGWINPYNGNKEFSAKFQDRVTFTADTSANTAYMELRSLRSADTAVYYCARVGPYSWDDSPQDNYYMDVWGKGTTVIVSS
VL: ELTQSPGTLSLSPGERATFSCRSSHQLDGSRVAWYQHKPGQAPRLVIHGVSNRASGISDRFSGSGSGTDFTLTITRVEPEDFALYYCQQYGWPFYTFGQGTKLERKR
koff [3]: 0.000615 s⁻¹ | kon [3]: 296000 M⁻¹ s⁻¹ | Fold Increase of Mutant Kd Compared to MT4 Kd [4]: 3.02 fold | Ka [4]: 4.81e+08 M⁻¹ | Kd [4]: 2.08 nM

B3: composite Fab H103/L42-4 (Fab, V domains shown)
VH: LEQSGAEVKKPGASVKVSCQASGYRFSHFTLHWVRQAPGQRFEWHGWINPYNGNKEFSAKFQDRVTFTADTSANTAYMELRSLRSADTAVYYCARVGEWGWHQRRYDNYYMDVWGKGTTVIVSS
VL: ELTQSPGTLSLSPGERATFSCRSSHQLDGSRVAWYQHKPGQAPRLVIHGVSNRASGISDRFSGSGSGTDFTLTITRVEPEDFALYYCQQYGWPFYTFGQGTKLERKR
koff [3]: 9.41e-06 s⁻¹ | kon [3]: 81800 M⁻¹ s⁻¹ | Fold Increase of Mutant Kd Compared to MT4 Kd [4]: 55.8 fold | Ka [4]: 8.88e+09 M⁻¹ | Kd [4]: 0.113 nM | Kd [2]: 0.113 nM

B4: composite Fab H31/4L-14 (Fab, V domains shown)
VH: LEQSGAEVKKPGASVKVSCQASGYRFSHFTVHWVRQAPGQRFEWHGWINPYNGNKEFSAKFQDRVTFTADTSANTAYMELRSLRSADTAVYYCARVGEWGWEMFRYDNYYMDVWGKGTTVIVSS
VL: ELTQSPGTLSLSPGERATFSCRSSHSIRSRRVAWYQHKPGQAPRLVIHGVSNRASGISDRFSGSGSGTDFTLTITRVEPEDFALYYCQVYGASSYTFGQGTKLERKR
koff [3]: 3.39e-06 s⁻¹ | kon [3]: 153000 M⁻¹ s⁻¹ | Fold Increase of Mutant Kd Compared to MT4 Kd [4]: 284 fold | Ka [4]: 4.51e+10 M⁻¹ | Kd [4]: 0.0222 nM | Kd [2]: 0.022 nM

B5: Fab QA11 (Fab, V domains shown)
VH: LEQSGAEVKKPGASVKVSCQASGYRFSNFTVHWVRQAPGQRFEWMGWINPYNGNKEFSAKFQDRVTFTADTSANTAYMELRSLRSADTAVYYCARVGEWGWDDSPQDNYYMDVWGKGTTVIVSS
VL: ELTQSPGTLSLSPGERATFSCRSSHQLDGSRVAWYQHKPGQAPRLVIHGVSNRASGISDRFSGSGSGTDFTLTITRVEPEDFALYYCQTYGRGHYTFGQGTKLERKR
notes: also called LH (its light chain)
Fold Increase of Mutant Kd Compared to MT4 Kd [1]: 94.4 fold | Kd [1]: 0.067 nM | Kd [2]: 0.067 nM

B6: Fab QA8 (Fab, V domains shown)
VH: LEQSGAEVKKPGASVKVSCQASGYRFSNFTVHWVRQAPGQRFEWMGWINPYNGNKEFSAKFQDRVTFTADTSANTAYMELRSLRSADTAVYYCARVGEWGWDDSPQDNYYMDVWGKGTTVIVSS
VL: ELTQSPGTLSLSPGERATFSCRSSHQLDGSRVAWYQHKPGQAPRLVIHGVSNRASGISDRFSGSGSGTDFTLTITRVEPEDFALYYCQQYGDSLYTFGQGTKLERKR
Fold Increase of Mutant Kd Compared to MT4 Kd [1]: 14.3 fold | Kd [1]: 0.44 nM | Kd [2]: 0.44 nM

B7: Fab QA2 (Fab, V domains shown)
VH: LEQSGAEVKKPGASVKVSCQASGYRFSNFTVHWVRQAPGQRFEWMGWINPYNGNKEFSAKFQDRVTFTADTSANTAYMELRSLRSADTAVYYCARVGEWGWDDSPQDNYYMDVWGKGTTVIVSS
VL: ELTQSPGTLSLSPGERATFSCRSSHQLDGSRVAWYQHKPGQAPRLVIHGVSNRASGISDRFSGSGSGTDFTLTITRVEPEDFALYYCQLYGRGNYTFGQGTKLERKR
Fold Increase of Mutant Kd Compared to MT4 Kd [1]: 14.9 fold | Kd [1]: 0.42 nM | Kd [2]: 0.42 nM

B8: Fab QA4 (Fab, V domains shown)
VH: LEQSGAEVKKPGASVKVSCQASGYRFSNFTVHWVRQAPGQRFEWMGWINPYNGNKEFSAKFQDRVTFTADTSANTAYMELRSLRSADTAVYYCARVGEWGWDDSPQDNYYMDVWGKGTTVIVSS
VL: ELTQSPGTLSLSPGERATFSCRSSHQLDGSRVAWYQHKPGQAPRLVIHGVSNRASGISDRFSGSGSGTDFTLTITRVEPEDFALYYCQSYGGRDYTFGQGTKLERKR
Fold Increase of Mutant Kd Compared to MT4 Kd [1]: 12.6 fold | Kd [1]: 0.5 nM | Kd [2]: 0.5 nM

B9: Fab QA10 (Fab, V domains shown)
VH: LEQSGAEVKKPGASVKVSCQASGYRFSNFTVHWVRQAPGQRFEWMGWINPYNGNKEFSAKFQDRVTFTADTSANTAYMELRSLRSADTAVYYCARVGEWGWDDSPQDNYYMDVWGKGTTVIVSS
VL: ELTQSPGTLSLSPGERATFSCRSSHQLDGSRVAWYQHKPGQAPRLVIHGVSNRASGISDRFSGSGSGTDFTLTITRVEPEDFALYYCQTYGRGSYTFGQGTKLERKR
Fold Increase of Mutant Kd Compared to MT4 Kd [1]: 85.9 fold | Kd [1]: 0.074 nM | Kd [2]: 0.074 nM

B10: composite Fab H101/4L-1 (Fab, V domains shown)
VH: LEQSGAEVKKPGASVKVSCQASGYRFSHFTVHWVRQAPGQRFEWHGWINPYNGNKEFSAKFQDRVTFTADTSANTAYMELRSLRSADTAVYYCARVGEWGWHQRRYDNYYMDVWGKGTTVIVSS
VL: ELTQSPGTLSLSPGERATFSCRSSHSIRSRRVAWYQHKPGQAPRLVIHGVSNRASGISDRFSGSGSGTDFTLTITRVEPEDFALYYCQVYGASSYTFGQGTKLERKR
koff [3]: 3.39e-05 s⁻¹ | kon [3]: 893000 M⁻¹ s⁻¹ | Fold Increase of Mutant Kd Compared to MT4 Kd [4]: 16.6 fold | Ka [4]: 2.63e+09 M⁻¹ | Kd [4]: 0.38 nM | Kd [2]: 0.38 nM

B11: Fab QA12 (Fab, V domains shown)
VH: LEQSGAEVKKPGASVKVSCQASGYRFSNFTVHWVRQAPGQRFEWMGWINPYNGNKEFSAKFQDRVTFTADTSANTAYMELRSLRSADTAVYYCARVGEWGWDDSPQDNYYMDVWGKGTTVIVSS
VL: ELTQSPGTLSLSPGERATFSCRSSHQLDGSRVAWYQHKPGQAPRLVIHGVSNRASGISDRFSGSGSGTDFTLTITRVEPEDFALYYCQTYGRGIYTFGQGTKLERKR
Fold Increase of Mutant Kd Compared to MT4 Kd [1]: 48.6 fold | Kd [1]: 0.13 nM | Kd [2]: 0.13 nM

B12: Fab QA9 (Fab, V domains shown)
VH: LEQSGAEVKKPGASVKVSCQASGYRFSNFTVHWVRQAPGQRFEWMGWINPYNGNKEFSAKFQDRVTFTADTSANTAYMELRSLRSADTAVYYCARVGEWGWDDSPQDNYYMDVWGKGTTVIVSS
VL: ELTQSPGTLSLSPGERATFSCRSSHQLDGSRVAWYQHKPGQAPRLVIHGVSNRASGISDRFSGSGSGTDFTLTITRVEPEDFALYYCQMYGGFTYTFGQGTKLERKR
Fold Increase of Mutant Kd Compared to MT4 Kd [1]: 10.3 fold | Kd [1]: 0.61 nM | Kd [2]: 0.61 nM

B13: Fab QA5 (Fab, V domains shown)
VH: LEQSGAEVKKPGASVKVSCQASGYRFSNFTVHWVRQAPGQRFEWMGWINPYNGNKEFSAKFQDRVTFTADTSANTAYMELRSLRSADTAVYYCARVGEWGWDDSPQDNYYMDVWGKGTTVIVSS
VL: ELTQSPGTLSLSPGERATFSCRSSHQLDGSRVAWYQHKPGQAPRLVIHGVSNRASGISDRFSGSGSGTDFTLTITRVEPEDFALYYCQTYGWSGYTFGQGTKLERKR
Fold Increase of Mutant Kd Compared to MT4 Kd [1]: 13.7 fold | Kd [1]: 0.46 nM | Kd [2]: 0.46 nM
